# Assays:
# VEGFR2 (KDR/Fc) = assay: Co-precipitation assay, VEGF with VEGFR2/Fc in solution; assay type: binding; conditions: F(ab′)2
# Procedure: 200 ng of soluble forms of VEGFR1 (Flt-1/Fc) or VEGFR2 (KDR/Fc, R&D Systems, Minneapolis, Minn.) were added for a total volume of 50 μl and incubated for 2 hrs. The receptor/Fc constructs were precipitated using Protein A-sepbarose beads and the resulting precipitate was washed 4 times with binding buffer.
# Reducing sample buffer was added to the pellet and supernatant of each reaction and both were analyzed by 12% SDS-PAGE and transferred to PVDF membranes. […] The soluble receptor/Fc constructs were also detected by using peroxidase-conjugated goat anti-human Fc (Kirkegaard & Perry Laboratories, Inc.)
# The receptor/Fc constructs were precipitated by incubation with Protein A sepharose beads. The precipitate was washed and resuspended in reducing sample buffer and separated by 12% SDS-PAGE and transferred to PVDF.
# [1] = Blood clearance of radioiodinated 2C3-GUS after intravenous injection; assay type: in vivo, mice; conditions: 125I-labelled
# Description: 2C3-GUS was radioiodinated with ^125I to a specific activity of 5×10^6 cpm/μg.
# [2] = test system: human NCI-H358 NSCLC tumors; assay: Localization of 2C3-GUS after i.v. injection into tumor-bearing SCID mice; assay type: in vivo
# [3] = test system: progressive disease in cancer patients; conditions: clinical trials; cited from earlier work
# [4] = dose-related; cited from earlier work
molecule,measurement,setting,value
2C3 F(ab′)2: F(ab′)2 fragment of 2C3,Blocking of VEGF binding to VEGFR2/Fc in solution,VEGFR2 (KDR/Fc),blocked the binding of VEGF to VEGFR2/Fc
2C3-GUS,t½ α,[1],about 6 hours
same,t½ β,[1],about 25 hours
same,Localization after i.v. injection,[2]; immunohistochemistry on frozen tumor sections,specifically localized to tumor vasculature and surrounding tumor stroma
same,Staining of normal tissues,"[2]; mouse, in vivo",Normal tissues were unstained
"NC(=O)c1nnn(Cc2cc(Cl)c(C(=O)c3ccc(Cl)cc3)c(Cl)c2)c1N [CAI, carboxyamidotriazole]","Disease stabilization, share of cancer patients having progressive disease before treatment",[3],49%
"recombinant, humanized form of Genentech's anti-VEGF antibody: recombinant, humanized form of Genentech's anti-VEGF antibody evaluated in monkeys (Ryan et al., 1999)",Preclinical safety finding in monkeys,[4],physeal dysplasia
